Measured values from US20130252251A1 (CENTRE NATIONAL DE LA RECHERCHE SCIENTIFIQUE, published 2013).

Legend:
[1] = biological target: PAR (PeRV A Receptor) receptors: human Riboflavin Transporter 1 (hRFT1 or PAR2) and hRFT3 (or PAR1); assay: flow cytometry, tagged RBD on blood neutrophils of one CF patient
[2] = biological target: PAR (PeRV A Receptor) receptors: human Riboflavin Transporter 1 (hRFT1 or PAR2) and hRFT3 (or PAR1); assay: flow cytometry, tagged RBD on sputum neutrophils of one CF patient
[3] = biological target: PAR (PeRV A Receptor) receptors: human Riboflavin Transporter 1 (hRFT1 or PAR2) and hRFT3 (or PAR1); assay: flow cytometry, tagged RBD on blood neutrophils of healthy control donors (N=8)
[4] = biological target: PAR (PeRV A Receptor) receptors: human Riboflavin Transporter 1 (hRFT1 or PAR2) and hRFT3 (or PAR1); assay: flow cytometry, tagged RBD on blood neutrophils of rheumatoid arthritis patients (N=9)
[5] = biological target: membrane receptor interacting with BLV; assay: flow cytometry, tagged RBD on blood neutrophils of one CF patient
[6] = biological target: membrane receptor interacting with BLV; assay: flow cytometry, tagged RBD on sputum neutrophils of one CF patient
[7] = biological target: membrane receptor interacting with BLV; assay: flow cytometry, tagged RBD on blood neutrophils of healthy control donors (N=8)
[8] = biological target: membrane receptor interacting with BLV; assay: flow cytometry, tagged RBD on blood neutrophils of rheumatoid arthritis patients (N=9)
[9] = biological target: T1, PiT1 membrane receptor (human, UniProt Q8WUM9 1-679); assay: flow cytometry, tagged RBD on blood neutrophils of healthy control donors (N=8)
T1 construct: whole, on cells; Endogenous receptor on primary blood or sputum neutrophils
T1 sequence: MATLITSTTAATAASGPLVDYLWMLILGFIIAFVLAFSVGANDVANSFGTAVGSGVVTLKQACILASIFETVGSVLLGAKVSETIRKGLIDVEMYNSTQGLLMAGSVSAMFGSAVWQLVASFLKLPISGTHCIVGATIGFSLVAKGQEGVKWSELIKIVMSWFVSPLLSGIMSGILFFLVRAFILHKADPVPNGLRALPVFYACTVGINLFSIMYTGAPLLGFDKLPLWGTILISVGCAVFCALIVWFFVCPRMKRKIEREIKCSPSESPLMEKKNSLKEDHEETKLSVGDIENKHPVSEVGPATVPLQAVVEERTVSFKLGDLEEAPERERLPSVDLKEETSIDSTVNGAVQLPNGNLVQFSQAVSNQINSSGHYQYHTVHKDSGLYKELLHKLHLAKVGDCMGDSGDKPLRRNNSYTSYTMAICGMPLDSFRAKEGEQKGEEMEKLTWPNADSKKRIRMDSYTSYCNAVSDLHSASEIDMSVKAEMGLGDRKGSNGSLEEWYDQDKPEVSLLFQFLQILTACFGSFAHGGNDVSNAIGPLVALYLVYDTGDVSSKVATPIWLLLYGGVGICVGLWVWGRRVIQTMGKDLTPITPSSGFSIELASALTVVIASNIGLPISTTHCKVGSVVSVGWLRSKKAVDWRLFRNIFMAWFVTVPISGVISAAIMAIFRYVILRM

[10] = biological target: T1, PiT1 membrane receptor; assay: flow cytometry, tagged RBD on blood neutrophils of rheumatoid arthritis patients (N=9)
[11] = biological target: T2, PiT2 membrane receptor (human, UniProt Q08357 1-652); assay: flow cytometry, tagged RBD on blood neutrophils of healthy control donors (N=8)
T2 construct: whole, on cells; Endogenous receptor on primary blood or sputum neutrophils; also called FiT2
T2 sequence: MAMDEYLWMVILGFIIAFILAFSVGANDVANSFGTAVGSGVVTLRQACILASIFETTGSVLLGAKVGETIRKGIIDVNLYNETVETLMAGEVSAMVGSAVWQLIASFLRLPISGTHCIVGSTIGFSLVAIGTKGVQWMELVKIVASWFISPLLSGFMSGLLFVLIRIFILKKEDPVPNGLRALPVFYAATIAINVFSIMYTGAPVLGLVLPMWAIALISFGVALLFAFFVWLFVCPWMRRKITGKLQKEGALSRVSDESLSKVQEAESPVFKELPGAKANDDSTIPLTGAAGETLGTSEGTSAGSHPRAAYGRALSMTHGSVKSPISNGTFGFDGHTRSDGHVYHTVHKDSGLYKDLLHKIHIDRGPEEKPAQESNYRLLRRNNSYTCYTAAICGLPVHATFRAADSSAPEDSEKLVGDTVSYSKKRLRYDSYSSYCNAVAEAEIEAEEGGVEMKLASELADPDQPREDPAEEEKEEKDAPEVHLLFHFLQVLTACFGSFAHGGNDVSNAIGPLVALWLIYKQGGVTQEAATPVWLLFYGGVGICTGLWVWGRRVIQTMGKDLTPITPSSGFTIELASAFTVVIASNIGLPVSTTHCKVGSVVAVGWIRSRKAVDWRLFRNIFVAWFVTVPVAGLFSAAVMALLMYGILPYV

[12] = biological target: T2, PiT2 membrane receptor; assay: flow cytometry, tagged RBD on blood neutrophils of rheumatoid arthritis patients (N=9)
[13] = biological target: T3, GLUT1 membrane receptor (human, UniProt P11166 1-492); assay: flow cytometry, tagged RBD on blood neutrophils of healthy control donors (N=8)
T3 construct: whole, on cells; Endogenous receptor on primary blood or sputum neutrophils
T3 sequence: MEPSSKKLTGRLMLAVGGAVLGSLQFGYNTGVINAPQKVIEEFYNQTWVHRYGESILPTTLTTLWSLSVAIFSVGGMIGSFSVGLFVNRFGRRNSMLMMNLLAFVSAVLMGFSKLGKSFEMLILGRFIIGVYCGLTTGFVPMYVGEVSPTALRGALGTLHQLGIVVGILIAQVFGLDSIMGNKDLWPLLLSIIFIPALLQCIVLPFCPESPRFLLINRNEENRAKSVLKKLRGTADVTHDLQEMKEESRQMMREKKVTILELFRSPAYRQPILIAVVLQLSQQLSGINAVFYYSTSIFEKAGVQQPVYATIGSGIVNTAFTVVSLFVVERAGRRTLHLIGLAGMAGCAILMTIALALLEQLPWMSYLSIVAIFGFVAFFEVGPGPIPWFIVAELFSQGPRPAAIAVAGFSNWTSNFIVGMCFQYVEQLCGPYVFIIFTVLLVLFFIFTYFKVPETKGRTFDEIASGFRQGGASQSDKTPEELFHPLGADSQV

[14] = biological target: T3, GLUT1 membrane receptor; assay: flow cytometry, tagged RBD on blood neutrophils of rheumatoid arthritis patients (N=9)
[15] = biological target: T4, ASCT2 membrane receptor (human, UniProt Q15758 1-541); assay: flow cytometry, tagged RBD on blood neutrophils of healthy control donors (N=8)
T4 construct: whole, on cells; Endogenous receptor on primary blood or sputum neutrophils; also called ASTC2
T4 sequence: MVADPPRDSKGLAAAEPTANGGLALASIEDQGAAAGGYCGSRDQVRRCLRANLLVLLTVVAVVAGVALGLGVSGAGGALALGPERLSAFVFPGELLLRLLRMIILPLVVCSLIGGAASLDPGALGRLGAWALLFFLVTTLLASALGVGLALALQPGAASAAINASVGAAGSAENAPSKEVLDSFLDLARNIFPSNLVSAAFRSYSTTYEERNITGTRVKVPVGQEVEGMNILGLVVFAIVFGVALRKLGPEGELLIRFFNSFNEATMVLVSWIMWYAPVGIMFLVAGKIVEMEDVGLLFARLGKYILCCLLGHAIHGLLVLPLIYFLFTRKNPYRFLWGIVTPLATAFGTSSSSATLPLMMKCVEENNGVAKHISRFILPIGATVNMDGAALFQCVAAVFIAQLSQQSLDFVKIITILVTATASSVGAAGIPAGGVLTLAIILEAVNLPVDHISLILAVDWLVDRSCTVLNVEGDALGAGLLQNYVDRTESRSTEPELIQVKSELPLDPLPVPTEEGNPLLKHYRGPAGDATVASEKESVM

[16] = biological target: T4, ASCT2 membrane receptor; assay: flow cytometry, tagged RBD on blood neutrophils of rheumatoid arthritis patients (N=9)

Porcine Endogeneous Retrovirus-A receptor-binding domain (PERVA RBD) (ligand)
deltaGeomean of fluorescence [1]: 4160 | deltaGeomean of fluorescence [2]: 284 | deltaMedian of fluorescence (median) [3]: 3740 | deltaMedian of fluorescence (median) [4]: 2320

Bovine Leukaemia Virus receptor-binding domain (BLV RBD) (from UniProt P25507 34-215) (ligand)
deltaGeomean of fluorescence [5]: 0 | deltaGeomean of fluorescence [6]: 140 | deltaMedian of fluorescence (median) [7]: 3550 | deltaMedian of fluorescence (median) [8]: 2750

B1: Koala endogeneous Retrovirus receptor-binding domain (KoRV RBD) (ligand)
chain: NQQHNNPHQPMTLTWQVLSQTGSVVWEKKAVEPPWTWWPSLEPDVCALVAGLESWDIPELTASASQQARPPDSNYEHAYNQITWGTLGCSYPRARTRIARSQFYVCPRDGRSLSEARRCGGLESLYCKEWGCETAGTAYWQPRSSWDLITVGQGHPTGTCERTGWCNPLKIEFTEPGKRFRNWLQGRTWGLRFYVTGHPGVQLTIRLVITSPPPVVVGPDPVLAEQGPPRKIPFLPRVPVPTLSPPASPIPTVQASPPAPSTPSPTTGDRLFGLVQGAFLALNATNPEATESCWLC
notes: not shown: tag: EGFP, mouse-IgG Fc or rabbit-IgG Fc
deltaMedian of fluorescence (median) [9]: 2640 | deltaMedian of fluorescence (median) [10]: 1880

B2: Amphotropic Murine Leukemia Retrovirus receptor-binding domain (AMLV RBD) (ligand)
chain: AESPHQVFNVTWRVTNLMTGRTANATSLLGTVQDAFPKLYFDLCDLVGEEWDPSDQEPYVGYGCKYPAGRQRTRTFDFYVCPGHTVKSGCGGPGEGYCGKWGCETTGQAYWKPTSSWDLISLKRGNTPWDTGCSKVACGPCYDLSKVSNSFQGATRGGRCNPLVLEFTDAGKKANWDGPKSWGLRLYRTGTDPITMFSLTRQVLNVGPRVPIGPNPVLPDQRLPSSPIEIVPAPQPPSPLNTSYPPSTTSTPSTSPTSPSVPQPPPGTGDRLLALVKGAYQALNLTNPDKTQECWLC
notes: as for B1
deltaMedian of fluorescence (median) [11]: 3930 | deltaMedian of fluorescence (median) [12]: 2860

B3: Human T Leukaemia Virus-2 receptor-binding domain (HTLV-2 RBD) (ligand)
chain: QQSRCTLTVGISSYHSSPCSPTQPVCTWNLDLNSLTTDQRLHPPCPNLITYSGFHKTYSLYLFPHWIKKPNRQGLGYYSPSYNDPCSLQCPYLGCQSWTCPYTGPVSSPSWKFHSDVNFTQEVSQVSLRLHFSKCGSSMTLLVDAPGYDPLWFITSEPTQPPPTSPPLVHDSDLEHVLTPSTSWTTKILKFIQLTLQSTNYSCMVC
notes: as for B1
deltaMedian of fluorescence (median) [13]: 4670 | deltaMedian of fluorescence (median) [14]: 3180

B4: Feline endogenous retrovirus receptor-binding domain (RD114 RBD) (ligand)
chain: GFDDPRKAIALVQKQHGKPCECSGGQVSEAPPNSIQQVTCPGKTAYLMTNQKWKCRVTPKISPSGGELQNCPCNTFQDSMHSSCYTEYRQCRRINKTYYTATLLKIRSGSLNEVQILQNPNQLLQSPCRGSINQPVCWSATAPIHISDGGGPLDTKRVWTVQKRLEQIHKAMTPELQYHPLALPKVRDDLSLDARTFDILNTTFRLLQMSNFSLAQDCWLC
notes: as for B1
deltaMedian of fluorescence (median) [15]: 1630 | deltaMedian of fluorescence (median) [16]: 1650
